Two molecules from patent CN1542019A (CHINA ANTIBODY PHARMACY CO LTD, dated 2004) can be followed below.

Experiment [1] has as its target T1, CD22抗原 (CD22 on Raji human lymphoma cells) (human, UniProt P20273 20-847).
T1 construct: whole, on cells; The assays are on Raji cells; also called Raji人淋巴瘤细胞; Raji细胞
T1 sequence (looked up): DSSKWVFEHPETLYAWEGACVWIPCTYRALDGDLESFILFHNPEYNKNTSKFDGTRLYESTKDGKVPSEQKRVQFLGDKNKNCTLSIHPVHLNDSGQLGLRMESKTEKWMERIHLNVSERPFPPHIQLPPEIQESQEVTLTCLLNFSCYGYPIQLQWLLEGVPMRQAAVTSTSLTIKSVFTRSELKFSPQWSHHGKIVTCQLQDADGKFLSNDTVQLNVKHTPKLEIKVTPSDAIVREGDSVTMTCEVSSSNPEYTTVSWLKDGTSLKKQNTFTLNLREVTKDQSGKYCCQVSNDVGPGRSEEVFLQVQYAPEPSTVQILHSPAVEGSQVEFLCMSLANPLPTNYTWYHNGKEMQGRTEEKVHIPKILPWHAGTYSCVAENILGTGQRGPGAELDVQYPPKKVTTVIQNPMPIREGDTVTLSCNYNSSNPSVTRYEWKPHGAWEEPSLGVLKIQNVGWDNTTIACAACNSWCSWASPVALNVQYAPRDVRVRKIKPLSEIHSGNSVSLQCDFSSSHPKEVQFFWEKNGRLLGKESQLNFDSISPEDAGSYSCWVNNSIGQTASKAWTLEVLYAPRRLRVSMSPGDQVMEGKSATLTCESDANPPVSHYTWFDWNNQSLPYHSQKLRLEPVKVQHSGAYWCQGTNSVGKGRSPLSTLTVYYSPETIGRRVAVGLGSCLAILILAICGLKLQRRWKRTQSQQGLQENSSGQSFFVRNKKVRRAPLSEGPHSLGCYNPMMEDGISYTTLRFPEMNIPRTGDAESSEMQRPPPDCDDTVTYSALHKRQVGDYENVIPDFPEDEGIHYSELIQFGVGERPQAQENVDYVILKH
The experiment in a line: flow cytometry on Raji human lymphoma cells, four purified batches of different production and storage time. For orientation: A flow cytometer gives signals particle by particle.

The target in experiment [2] is T1, CD22抗原 (CD22 on Raji human lymphoma …). The experiment in a line: competitive flow cytometry on Raji cells; unlabelled murine parent antibody as competitor of its FITC conjugate.

Numbering of substitutions follows the chain as printed.

B1: 嵌合抗体SM03 (chimeric anti-CD22 antibody SM03, human IgG1/human Kappa, variable regions modified at the N- and C-termini) (antibody, V domains shown)
VH: QVQLQESGGGLVKPGGSLKLSCAASGFAFSIYDMSWVRQWPEKRLEWVAYISSGGGTTYYPDTVKGRFTISRDNAKNTLYLQMSSLKSEDTAMYYCARHSGYGSSYGVLFAYWGQGTLVTVSS
VL: DIQLTQTTSSLSASLGDRVTISCRASQDISNYLNWYQQKPDGTVKLLIYYTSILHSGVPSRFSGSGSGTDYSLTISNLEQEDFATYFCQQGNTLPWTFGGGTKLEIKR
notes: Expressed in SP2/0 cells, purified on Protein A; also called 嵌合单克隆抗体SM03; SM03试产第一批抗体
For the molecule B1, the binding result in experiment [1] is listed as “binds”.

B2: 嵌合抗体SM03的鼠源母抗体 (murine parent antibody of SM03) (antibody, V domains shown)
VH: B1 VH with Q1E, Q5V, S123A
VL: DIQMTQTTSSLSASLGDRVTISCRASQDISNYLNWYQQKPDGTVKLLIYYTSILHSGVPSRFSGSGSGTDYSLTISNLEQEDFATYFCQQGNTLPWTFGGGTKLEIK
notes: Whole mouse hybridoma antibody (mouse IgG heavy chain, kappa light chain by the cloning primers); also called 鼠源抗体; FITC-鼠源母抗体偶联物
Take B2: in experiment [2], the binding result is “binds”.
